According to the Immune Epitope Database (IEDB):
Values belong to the sequence of their own block, whether it stands above or below them.

How the values were obtained:
HLA-A*01:01 = experiment: IEDB peptide-MHC binding, purified MHC/direct/fluorescence; filed as Kd, often an IC50 or EC50 that approximates it; ≥ and ≤ were set here for values at or beyond the usual limits of such assays
HLA-A*03:01 = experiment: as above
HLA-A*11:01 = experiment: as above
HLA-A*31:01 = experiment: as above; details: source organism: Escherichia coli O157:H7
HLA-B*27:05 = experiment: as above; details: source organism: Escherichia coli O157:H7
HLA-B*40:01 = experiment: as above; details: source organism: Escherichia coli O157:H7
HLA-B*46:01 [1] = experiment: as above; details: source organism: Escherichia coli O157:H7
HLA-B*48:01 = experiment: as above; details: source organism: Escherichia coli O157:H7
HLA-B*57:01 [2] = experiment: as above; details: source organism: Escherichia coli O157:H7
HLA-B*58:01 = experiment: as above; details: source organism: Escherichia coli O157:H7
HLA-A*02:01 = experiment: IEDB peptide-MHC binding, purified MHC/competitive/fluorescence; filed as Kd, often an IC50 or EC50 that approximates it; ≥ and ≤ were set here for values at or beyond the usual limits of such assays
HLA-A*69:01 = experiment: as above
HLA-B*08:01 = experiment: as above
HLA-B*15:01 [3] = experiment: as above
HLA-A*02:03 = experiment: IEDB peptide-MHC binding, purified MHC/direct/fluorescence; filed as Kd, often an IC50 or EC50 that approximates it; ≥ and ≤ were set here for values at or beyond the usual limits of such assays
HLA-A*02:11 = experiment: as above
HLA-A*02:12 = experiment: as above
HLA-A*02:16 = experiment: as above
HLA-A*02:19 = experiment: as above
HLA-A*23:01 = experiment: as above
HLA-A*24:03 = experiment: as above
HLA-A*29:02 = experiment: as above
HLA-A*68:02 = experiment: as above
HLA-A*26:01 = experiment: IEDB peptide-MHC binding, purified MHC/competitive/fluorescence; filed as Kd, often an IC50 or EC50 that approximates it; ≥ and ≤ were set here for values at or beyond the usual limits of such assays
HLA-B*15:17 = experiment: as above
HLA-B*15:42 = experiment: as above; details: source organism: Vibrio parahaemolyticus RIMD 2210633
HLA-B*18:01 = experiment: as above
HLA-B*39:01 [4] = experiment: as above
HLA-B*45:06 = experiment: as above; details: source organism: Vibrio parahaemolyticus RIMD 2210633
HLA-B*46:01 [5] = experiment: as above
HLA-B*51:01 [6] = experiment: as above
HLA-B*57:01 [7] = experiment: as above
HLA-B*83:01 = experiment: as above; details: source organism: Vibrio parahaemolyticus RIMD 2210633
HLA-A*24:02 = experiment: IEDB peptide-MHC binding, purified MHC/competitive/fluorescence; ≥ and ≤ were set here for values at or beyond the usual limits of such assays; details: source organism: Sudan ebolavirus
HLA-B*15:01 [8] = experiment: as above; details: source organism: Sudan ebolavirus
HLA-B*15:01 [9] = experiment: IEDB peptide-MHC binding, purified MHC/direct/fluorescence; filed as Kd, often an IC50 or EC50 that approximates it; ≥ and ≤ were set here for values at or beyond the usual limits of such assays; details: source organism: Ebola virus - Eckron (Zaire, 1976)
HLA-B*27:03 = experiment: IEDB peptide-MHC binding, purified MHC/competitive/fluorescence; filed as Kd, often an IC50 or EC50 that approximates it; ≥ and ≤ were set here for values at or beyond the usual limits of such assays; details: source organism: Zaire ebolavirus
HLA-B*51:01 [10] = experiment: IEDB peptide-MHC binding, purified MHC/direct/fluorescence; filed as Kd, often an IC50 or EC50 that approximates it; ≥ and ≤ were set here for values at or beyond the usual limits of such assays; details: source organism: Homo sapiens
HLA-B*39:01 [11] = experiment: as above; details: source organism: Camelpox virus M-96
[12] = source organism: Escherichia coli O157:H7
[13] = source organism: Escherichia coli O157:H7 str. EDL933
[14] = source organism: Vibrio parahaemolyticus RIMD 2210633
[15] = source organism: Zaire ebolavirus
[16] = source organism: Ravn virus - Ravn, Kenya, 1987

Kd (HLA-A*01:01; [12]): ≥ 20 µM
Kd (HLA-A*03:01; [12]): ≥ 20 µM
Kd (HLA-A*11:01; [12]): ≥ 20 µM
Kd (HLA-A*31:01): ≥ 20 µM
Kd (HLA-B*27:05): ≥ 20 µM
Kd (HLA-B*40:01): ≥ 20 µM
Kd (HLA-B*46:01 [1]): 232 nM
Kd (HLA-B*48:01): ≥ 20 µM
Kd (HLA-B*57:01 [2]): ≥ 20 µM
Kd (HLA-B*58:01): ≥ 20 µM
Kd (HLA-A*02:01; [13]): 0.0104 µM
Kd (HLA-A*69:01; [13]): 0.68 µM
Kd (HLA-B*08:01; [13]): 910 nM
Kd (HLA-B*15:01 [3]; [13]): 92.5 nM
Sequence: FIVEHINAM

Sequence: SMNYPNSYK
Kd (HLA-A*02:03; [14]): ≥ 20 µM
Kd (HLA-A*02:11; [14]): ≥ 20 µM
Kd (HLA-A*02:12; [14]): ≥ 20 µM
Kd (HLA-A*02:16; [14]): ≥ 20 µM
Kd (HLA-A*02:19; [14]): ≥ 20 µM
Kd (HLA-A*11:01; [14]): ≤ 0.001 µM
Kd (HLA-A*23:01; [14]): ≥ 20 µM
Kd (HLA-A*24:03; [14]): ≥ 20 µM
Kd (HLA-A*29:02; [14]): ≥ 20 µM
Kd (HLA-A*68:02; [14]): ≥ 20 µM
Kd (HLA-A*02:01; [14]): ≥ 20 µM
Kd (HLA-A*26:01; [14]): ≥ 20 µM
Kd (HLA-A*69:01; [14]): ≥ 20 µM
Kd (HLA-B*15:17; [14]): ≥ 20 µM
Kd (HLA-B*15:42): ≥ 5 µM
Kd (HLA-B*18:01; [14]): ≥ 20 µM
Kd (HLA-B*39:01 [4]; [14]): ≥ 20 µM
Kd (HLA-B*45:06): ≥ 5 µM
Kd (HLA-B*46:01 [5]; [14]): ≥ 20 µM
Kd (HLA-B*51:01 [6]; [14]): ≥ 20 µM
Kd (HLA-B*57:01 [7]; [14]): ≥ 20 µM
Kd (HLA-B*83:01): ≥ 5 µM

Sequence: ILNRKAIDF
IC50 (HLA-A*24:02): 3.28 µM
IC50 (HLA-B*15:01 [8]): 12.5 µM
Kd (HLA-A*02:03; [15]): ≥ 20 µM
Kd (HLA-A*02:11; [15]): ≥ 20 µM
Kd (HLA-A*02:12; [15]): ≥ 20 µM
Kd (HLA-A*02:16; [15]): ≥ 20 µM
Kd (HLA-A*02:19; [15]): ≥ 20 µM
Kd (HLA-A*03:01; [15]): ≥ 20 µM
Kd (HLA-A*23:01; [15]): ≥ 20 µM
Kd (HLA-A*24:03; [15]): ≥ 20 µM
Kd (HLA-A*29:02; [15]): ≥ 20 µM
Kd (HLA-A*68:02; [15]): ≥ 20 µM
Kd (HLA-B*15:01 [9]): 372 nM
Kd (HLA-A*02:01; [15]): ≥ 20 µM
Kd (HLA-A*26:01; [15]): ≥ 20 µM
Kd (HLA-A*69:01; [15]): ≥ 20 µM
Kd (HLA-B*15:17; [15]): ≥ 20 µM
Kd (HLA-B*18:01; [15]): ≥ 20 µM
Kd (HLA-B*27:03): ≥ 20 µM
Kd (HLA-B*39:01 [4]; [15]): ≥ 20 µM
Kd (HLA-B*46:01 [5]; [15]): ≥ 20 µM
Kd (HLA-B*51:01 [6]; [15]): ≥ 20 µM
Kd (HLA-B*57:01 [7]; [15]): ≥ 20 µM

Kd (HLA-B*51:01 [10]): 1890 nM
Sequence: YPGFGEHLI

Sequence: DLEKYNLAF
Kd (HLA-A*01:01; [15]): ≥ 20 µM
Kd (HLA-A*02:03; [16]): ≥ 20 µM
Kd (HLA-A*02:11; [16]): ≥ 20 µM
Kd (HLA-A*02:12; [16]): ≥ 20 µM
Kd (HLA-A*02:16; [16]): ≥ 20 µM
Kd (HLA-A*02:19; [16]): ≥ 20 µM
Kd (HLA-A*03:01; [16]): ≥ 20 µM
Kd (HLA-A*23:01; [16]): ≥ 20 µM
Kd (HLA-A*24:03; [16]): ≥ 20 µM
Kd (HLA-A*29:02; [16]): ≥ 20 µM
Kd (HLA-A*68:02; [16]): ≥ 20 µM
Kd (HLA-A*02:01; [15]): ≥ 20 µM
Kd (HLA-A*26:01; [15]): ≥ 20 µM
Kd (HLA-A*69:01; [15]): ≥ 20 µM
Kd (HLA-B*15:01 [3]; [15]): ≥ 20000 nM
Kd (HLA-B*15:17; [15]): ≥ 20 µM
Kd (HLA-B*18:01; [15]): ≥ 20 µM
Kd (HLA-B*27:03): ≥ 20 µM
Kd (HLA-B*39:01 [4]; [15]): ≥ 20 µM
Kd (HLA-B*46:01 [5]; [15]): ≥ 20 µM
Kd (HLA-B*51:01 [6]; [15]): ≥ 20 µM
Kd (HLA-B*57:01 [7]; [15]): ≥ 20 µM

Sequence: HHDPILNGL
Kd (HLA-B*39:01 [11]): 42.6 nM

Sequence: MQQGRFPPL
Kd (HLA-B*08:01; source organism: Yersinia pestis CO92): 340 nM
